Source: US20200369764A1 (INNATE PHARMA, published 2020)
Values belong to the molecule of their own block, whether it stands above or below them.

Tests used:
Human Siglec-9 [1] = target: T1, Human Siglec-9 (human, UniProt Q9Y336 18-463); assay: flow cytometry, fresh purified human NK cells (CD3-/CD56+), isotype control plot
T1 construct: on transfected CHO cells, YTS Siglec-9* cells, or native on primary NK cells and moDC (see assay); also called huSiglec-9; CD329

Human Siglec-7 (human) = Human Siglec-7 (human) (UniProt Q9Y286); assay: as above
Human Siglec-7 (human), sequence (Q9Y286 19-467): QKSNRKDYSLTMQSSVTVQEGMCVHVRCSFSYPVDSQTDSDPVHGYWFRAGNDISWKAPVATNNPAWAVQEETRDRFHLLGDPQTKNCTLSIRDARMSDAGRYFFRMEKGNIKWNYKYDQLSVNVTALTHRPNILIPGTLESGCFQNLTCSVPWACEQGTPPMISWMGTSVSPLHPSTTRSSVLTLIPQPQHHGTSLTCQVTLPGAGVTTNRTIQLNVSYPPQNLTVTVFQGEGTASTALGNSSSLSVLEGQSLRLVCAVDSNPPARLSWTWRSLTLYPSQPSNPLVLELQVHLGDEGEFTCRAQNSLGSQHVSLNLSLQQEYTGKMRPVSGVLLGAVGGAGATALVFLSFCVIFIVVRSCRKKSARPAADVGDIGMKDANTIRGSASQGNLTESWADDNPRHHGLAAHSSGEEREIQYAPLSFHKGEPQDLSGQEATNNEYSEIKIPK

Human Siglec-9 [2] = target: T1, Human Siglec-9; assay: flow cytometry titration on moDC, neuraminidase-treated against untreated
Description: moDC were desialylated for 2 hours with 25 mU neuraminidase (Roche Diagnostics).
Binding on moDCs and neuraminidase treated moDCs was tested in a titration experiment by flow cytometry. Cells were incubated 1h in Staining Buffer (SB) with primary antibodies at 10 μg/ml and a series of dilution of 1:10. They were washed two times with SB, then incubated 30 min with a Goat F(ab′)² Anti-Human IgG (Fc) PE (Jackson ImmunoResearch), and washed twice with SB.

T1 sequence (Q9Y336 18-463): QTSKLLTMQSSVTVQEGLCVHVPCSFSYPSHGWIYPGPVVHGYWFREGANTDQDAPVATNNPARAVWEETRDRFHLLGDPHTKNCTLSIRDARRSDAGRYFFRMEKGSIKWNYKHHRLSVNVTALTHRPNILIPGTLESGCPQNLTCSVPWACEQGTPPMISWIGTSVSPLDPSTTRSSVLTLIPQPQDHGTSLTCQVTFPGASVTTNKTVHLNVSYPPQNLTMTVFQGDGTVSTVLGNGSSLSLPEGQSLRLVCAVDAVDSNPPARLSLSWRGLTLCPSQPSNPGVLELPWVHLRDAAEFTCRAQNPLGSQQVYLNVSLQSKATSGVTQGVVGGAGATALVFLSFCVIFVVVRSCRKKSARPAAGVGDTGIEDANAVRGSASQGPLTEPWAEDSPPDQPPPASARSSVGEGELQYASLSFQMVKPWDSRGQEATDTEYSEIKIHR

Molecule: Isotype control - PE (antibody)
- % of NK cells in Q2 (APC positive and PE positive) (Human Siglec-9 [1]): 0.34%
- % of NK cells in Q3 (PE positive, APC negative) (Human Siglec-9 [1]): 2.54%

Molecule: Isotype control - APC (antibody)
- % of NK cells in Q1 (APC positive, PE negative) (Human Siglec-7 (human)): 0.975%
- % of NK cells in Q2 (APC positive and PE positive) (Human Siglec-7 (human)): 0.34%

B1: mAbA (antibody, V domains shown)
VH: QVQLQQPGAELVKPGSPVKLSCKASYFTFTSYWMHWVRQRPGQGLEWIGEINPSNGHTNYNEKFESKATLTVDRSSSTAYMQLSSLTSEDSAVFYCANGVESYDFDDALDYWGQGTSVTVSS
VL: DIQMTQTTSSLSASLGDRVTISCRASQDINNYLNWYQQKPDGTIKLLIYYTSRLHSGVPSRFSGSGSGTDYSLTINNLEQEDIATYFCQQGNTLPFTFGGGTKLEIK
notes: chimeric human IgG1, heavy chain N297Q (Kabat EU numbering)
- fold enhancement of EC50 on moDC after neuraminidase treatment (Human Siglec-9 [2]): 10 fold

The next lines start with the values.

- fold enhancement of EC50 on moDC after neuraminidase treatment (Human Siglec-9 [2]): 10 fold
B2: mAbC (antibody, V domains shown)
VH: QIQLVQSGPELKKPGETVKISCKASGYTFTNYEMNWVKEAPGKGLKWMGWINTYTGESTYADDFKGRFAFSLETSASTVYLQINNLKDEDVATYFCVRDDYGRSYGFAYWGQGTLVTVSA
VL: NIVLTQSPASLTVSLGQRANISCRASESVDSYGNSFMHWYQQKPGQPPKLLIYLASKLESGVPARFSGSGSRTDFTLTIDPVETDDAATYYCHQNNEDPPWTFGGGTKLEIK
notes: as for B1

- fold enhancement of EC50 on moDC after neuraminidase treatment (Human Siglec-9 [2]): 10 fold
B3: mAbD (antibody, V domains shown)
VH: QIQLVQSGPELKKPGETVKISCKASGYTFTDYSMHWVKQAPGKGLKWMGWIITETGEPTYADDFRGRFAFSLETSANTAYLQINNLKNEDTATYFCARDFDGYWGQGTTLTVSS
VL: DILMTQSPASLSASVGETVTITCRASENIYSYLAWYQQKRGKSPQFLVYNAKTLTEGVPSRFRGSGSGTQFSLKINSLQPEDFGTYYCQHHYGFPWTFGGGTKLEIK
notes: as for B1
